Results reported in patent US20060228299A1 (University of Texas, published 2006).

Target: T1, murine β2GPI (in normal mouse serum) (mouse, UniProt Q01339 20-345)
T1 construct: mature; also called mouse β2GPI
T1 sequence (looked up): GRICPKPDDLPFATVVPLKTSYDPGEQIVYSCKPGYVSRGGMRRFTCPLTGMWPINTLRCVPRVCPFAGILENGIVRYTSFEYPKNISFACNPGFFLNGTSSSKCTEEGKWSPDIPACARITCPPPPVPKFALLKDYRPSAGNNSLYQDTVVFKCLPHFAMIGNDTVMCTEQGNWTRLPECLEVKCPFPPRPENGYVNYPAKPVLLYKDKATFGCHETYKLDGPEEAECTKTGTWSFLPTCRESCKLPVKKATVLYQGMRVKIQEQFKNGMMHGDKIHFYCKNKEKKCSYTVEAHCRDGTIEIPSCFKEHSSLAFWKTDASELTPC
Experiment: immunoblot of 10% normal mouse serum

binding result: no binding (tested: 1 µg/ml)
B1: 3G4 mouse monoclonal antibody as used in Example XXX (converted to mouse IgG2a isotype, produced in NS0 cells) (antibody, V domains shown)
VH: EVQLQQSGPELEKPGASVKLSCKASGYSFTGYNMNWVKQSHGKSLEWIGHIDPYYGDTSYNQKFRGKATLTVDKSSSTAYMQLKSLTSEDSAVYYCVKGGYYGHWYFDVWGAGTTVTVSS
VL: DIQMTQSPSSLSASLGERVSLTCRASQDIGSSLNWLQQGPDGTIKRLIYATSSLDSGVPKRFSGSRSGSDYSLTISSLESEDFVDYYCLQYVSSPPTFGAGTKLELKR
notes: It was purified from serum-free media (SFM) or serum-containing media (SCM); also called 3G4 SFM; 3G4 SCM
